Measurements taken from patent US8008547B2, “Glyphosate-N-acetyltransferase (GAT) genes” (E.I. duPont de Nemours, priority 2000, dated 2011).

B1: SEQ ID NO: 513: GAT polypeptide (protein)
chain: MIEVKPINAEDTYEIRHRILRPNQPLEACMYETDLLGGTFHLGGYYRGKLISIASFHQAEHPELEGQKQYQLRGMATLEGYREQKAGSTLIRHAEELLRKKGADLLWCNARTSVSGYYEKLGFSEQGEVCDIPPIGPHILMYKKLT
modifications: GAT2_19H8
notes: GAT polypeptide
B2: SEQ ID NO: 289: GAT polypeptide (protein)
chain: MIEVKPINAEDTYEIRHRILRPNQPLEACKYETDLLGGTFHLGGYYRGKLISIASFHQAEHPELEGQKQYQLRGMATLEEYREQKAGSTLIRHAEELLRKKGADLLWCNARTSASGYYKKLGFSEQGEVYDAPPTGPHILMYKKLT
modifications: 12_5C10
notes: GAT polypeptide
B3: SEQ ID NO: 285: GAT polypeptide (protein)
chain: MIEVKPINAEDTYEIRHRILRPNQPLEACMYETDLLGGAFHLGGYYQGKLISIASFHKAEHSELEGQKQYQLRGMATLEGYREQKAGSTLIRHAEELLRKKGADLLWCNARTSVRGYYEKLGFSEQGGVYDIPPIGPHILMYKKLT
modifications: 11H3
notes: GAT polypeptide
B4: SEQ ID NO: 299: GAT polypeptide (protein)
chain: MIEVKPINAEDTYEIRHRILRPNQPLEACMYETDLLGGTFHLGGYYRGKLISIASFNQAEHPELEGQKQYQLRGMATLEEYREQKAGSTLIRHAEELLRKKGADLLWCNARTSASGYYKKLGFSEQGEVYDIPPVGPHILMHKKLT
modifications: 13_12G12
notes: GAT polypeptide
B5: SEQ ID NO: 282: GAT polypeptide (protein)
chain: MIEVKPINAEDTYEIRHRILRPNQPLEACKYETDLLGGAFHLGGYYRGKLISIASFHQAEHPELEGQKQYQLRGMATLEGYREQKAGSTLIRHAEELLRKKGADLLWCNARTSASGYYKKLGFSEQGGVYDIPPVGPHILMYKKLT
modifications: 10_8C6
notes: GAT polypeptide
B6: SEQ ID NO: 301: GAT polypeptide (protein)
chain: MIEVKPINAEDTYEIRHRILRPNQPLEACMYETDLLRSAFHLGGYYRGKLISIASFHQAEHPELEGQKQYQLRGMATLEEYREQKAGSTLIRHAEELLRKKGADLLWCNARTSASGYYKKLGFSEQGEVYDTPPVGPHILMYKKLT
modifications: 13_7A7
notes: GAT polypeptide
B7: SEQ ID NO: 288: GAT polypeptide (protein)
chain: MIEVKPINAEDTYEIRHRILRPNQPLEACKYETDLLGGTFHLGGYYRGKLISIASFHQAEHPELEGQKQYQLRGMATLEGYREQKAGSTLIRHAEELLRKKGADLLWCNARTSASGYYKKLGFSEQGGVYDIPPVGPHILMYKKLT
modifications: 12_3F1
notes: GAT polypeptide
B8: SEQ ID NO: 287: GAT polypeptide (protein)
chain: MIEVKPINAEDTYEIRHRILRPNQPLEACKYETDLLGGTFHLGGYYRGKLVSIASFHQAEHPELEGQKQYQLRGMATLEGYREQKAGSTLIRHAEELLRKKGADLLWCNARTSASGYYKKLGFSEQGEVYDTPPVGPHILMYKKLT
modifications: 12_2G9
notes: GAT polypeptide
B9: SEQ ID NO: 298: GAT polypeptide (protein)
chain: MIEVKPINAEDTYEIRHRILRPNQPLEACMYETDLLGGAFHLGGYYRGKLISIASFHQAEHSELEGQKQYQLRGMATLEGYREQKAGSTLIRHAEELLRKKGADLLWCNARTSASGYYKKLGFSEQGGVYDIPPIGPHILMYKKLT
modifications: 1_2H6
notes: GAT polypeptide
B10: SEQ ID NO: 302: GAT polypeptide (protein)
chain: MIEVKPINAEDTYEIRHRILRPNQPLEACKYETDLLGSTFHLGGYYRGKLISIASFHQAEHPELEGQKQYQLRGMATLEGYREQKAGSTLIRHAEELLRKKGADLLWCNARTSASGYYKKLGFSEQGEVYDIPPTGPHILMYKKLT
modifications: 13_7B12
notes: GAT polypeptide
B11: SEQ ID NO: 292: GAT polypeptide (protein)
chain: MIEVKPINAEDTYEIRHRILRPNQPLEACKYETDLLGGTFHLGGYYRGKLISIASFHQAEHPELEGQKQYQLRGMATLEGYREQKAGSTLIRHAEELLRKKGADLLWCNARTSASGYYKKLGFSEQGEVYDIPPTGPHILMYKKLT
modifications: 12_6F9
notes: GAT polypeptide
B12: SEQ ID NO: 514: GAT polypeptide (protein)
chain: MIEVKPINAEDTYEIRHRILRPNQPLEACMYETDLLGGTFHLGGYYRGKLISIASFHQAEHSELEGQKQYQLRGMATLEGYREQKAGSTLIRHAEELLRKKGADLLWCNARTSVSGYYKKLGFSEQGGVYDIPPIGPHILMYKKLT
modifications: GAT2_21F1
notes: GAT polypeptide
B13: SEQ ID NO: 295: GAT polypeptide (protein)
chain: MIEVKPINAEDTYEIRHRILRPNQPLEACKYETDLLGGTFHLGGYYRGKLISIASFHQAEHSELEGQKQYQLRGMATLEGYREQKAGSTLIRHAEELLRKKGADLLWCNARTSASGYYKKLGFSEQGEVYDTPPVGPHILMYKKLT
modifications: 12_7G11
notes: GAT polypeptide
B14: SEQ ID NO: 303: GAT polypeptide (protein)
chain: MIEVKPINAEDTYEIRHRILRPNQPLEACKYETDLLRGAFHLGGYYRGKLISIASFHQAEHPELEGQKQYQLRGMATLEGYREQKAGSTLIRHAEELLRKKGADLLWCNARTSARGYYKKLGFSEQGEVYDIPPTGPHILMYKKLT
modifications: 13_7C1
notes: GAT polypeptide
B15: SEQ ID NO: 286: GAT polypeptide (protein)
chain: MIEVKPINAEDTYEIRHRILRPNQPLEACKYETDLLGGTFHLGGYYRGKLISIASFHQAEHPELEGQKQYQLRGMATLEGYREQKAGSTLIRHAEELLRKKGADLLWCNARTSASGYYKKLGFSEQGEVHDIPPTGPHILMYKKLT
modifications: 12_1F9
notes: GAT polypeptide
B16: SEQ ID NO: 291: GAT polypeptide (protein)
chain: MIEVKPINAEDTYEIRHRILRPNQPLEACMYETDLLGGTFHLGGYYRGKLISIASFHQAEHPELEGQKQYQLRGMATLEEYREQKAGSTLIRHAEELLRKKGADLLWCNARTSASGYYKKLGFSEQGGVYDIPPVGPHILMYKKLT
modifications: 12_6D1
notes: GAT polypeptide
B17: SEQ ID NO: 290: GAT polypeptide (protein)
chain: MIEVKPINAEDTYEIRHRILRPNQPLEACKYETDLLGGTFHLGGYYRGKLVSIASFHQAEHPELEGQKQYQLRGMATLEGYREQKAGSTLIRHAEELLRKKGADLLWCNARTSASGYYKKLGFSEQGGVYDIPPVGPHILMYKKLT
modifications: 12_6A10
notes: GAT polypeptide
B18: SEQ ID NO: 297: GAT polypeptide (protein)
chain: MIEVKPINAEDTYEIRHRILRPNQPLEACKYETDLLGGTFHLGGYYQGKLISIASFHKAEHSELEGQKQYQLRGMATLEGYREQKAGSTLIRHAEELLRKKGADLLWCNARTSVSGYYKKLGFSEQGEVYDIPPIGPHILMYKKLT
modifications: 12G7
notes: GAT polypeptide
B19: SEQ ID NO: 283: GAT polypeptide (protein)
chain: MIEVKPINAEDTYEIRHRILRPNQPLEACKYETDLLGGTFHLGGYYQGKLISIASFHQAEHSELEGQKQYQLRGMATLEGYREQKAGSTLIRHAEELLRKKGADLLWCNARTSVSGYYKKLGFSEQGGVYDIPPIGPHILMYKKLT
modifications: 11C3
notes: GAT polypeptide
B20: SEQ ID NO: 284: GAT polypeptide (protein)
chain: MIEVKPINAEDTYEIRHRILRPNQPLEACMYETDLLGGTFHLGGYYQGKLISIASFHQAEHSELEGQKQYQLRGMATLEGYREQKAGSTLIRHAEELLRKKGADLLWCNARTSASGYYEKLGFSEQGGVYDIPPIGPHILMYKKLA
modifications: 11G3
notes: GAT polypeptide
B21: SEQ ID NO: 296: GAT polypeptide (protein)
chain: MIEVKPINAEDTYEIRHRILRPNQPLEACMYETDLLGGTFHLGGYYQGKLISIASFHKAEHSELEGQKQYQLRGMATLEGYREQKAGSTLIRHAEELLRKKGADLLWCNARTSVSGYYKKLGFSEQGGIYDIPPIGPHILMYKKLT
modifications: 12F5
notes: GAT polypeptide
B22: SEQ ID NO: 293: GAT polypeptide (protein)
chain: MIEVKPINAEDTYEIRHRILRPNQPLEACKYETDLLGGTFHLGGYYRGKLVSIASFHQAEHPELEGQKQYQLRGMATLEGYREQKAGSTLIRHAEALLRKKGADLLWCNARTSASGYYKKLGFSEQGEVYDIPPTGPHILMYKKLT
modifications: 12_6H6
notes: GAT polypeptide
B23: SEQ ID NO: 294: GAT polypeptide (protein)
chain: MIEVKPINAEDTYEIRHRILRPNQPLEACKYETDLLGGTFHLGGYYRGKLISIASFHQAEHPELEGQKQYQLRGMATLEGYREQKAGSTLIRHAEELLRKKGADLLWCNARTSASGYYKKLGFSEQGGVYDIPPTGPHILMYKKLT
modifications: 12_7D6
notes: GAT polypeptide

Experiment: Standard protocol for determination of kcat and KM (continuous spectrophotometric assay, Acetyl CoA hydrolysis at 235 nm)
Format: biochemical
Conditions: purified protein, about 23° C., 0.2 mM acetyl CoA; for Kcat: 20 mM HEPES pH 6.8, 10% ethylene glycol; for Km: pH 6.8, glyphosate 0.125 to 10 mM
Outline: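 KM from initial rates over 0.125–10 mM glyphosate, fitted by Lineweaver-Burke transformation of Michaelis-Menten; kcat/KM computed as kcat divided by KM. Continuous spectrophotometric read of acetyl-CoA hydrolysis at 235 nm.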

Molecule | Kcat [s⁻¹] | Km [µM]
B1 | 0.0683 | 2800
B2 | 1.49 | 1500
B3 | 0.02 | 1400
B4 | 0.602 | 690
B5 | 0.362 | 700
B6 | 1.95 | 500
B7 | 0.735 | 900
B8 | 2.523 | 1500
B9 | 0.155 | 900
B10 | 1.15 | 1700
B11 | 1.48 | 1900
B12 | 0.07 | 3000
B13 | 3.908 | 2000
B14 | 0.802 | 1500
B15 | 1.34 | 3000
B16 | 0.817 | 1200
B17 | 0.912 | 1100
B18 | 0.0383 | 3700
B19 | 0.0467 | 3100
B20 | 0.26 | 1700
B21 | 0.0517 | 1800
B22 | 1.51 | 1600
B23 | 0.898 | 1400
